3 molecules from article PMC4773810, “Novel small molecules targeting ciliary transport of Smoothened and oncogenic Hedgehog pathway activation” (Scientific Reports, 2016) can be followed below.

The target of the experiment is T1, human GPRASP2 (G protein-coupled receptor associated sorting protein 2), full length (human, UniProt Q96D09 1-838).
T1 construct: G protein-coupled receptor associated sorting protein 2 (GPRASP2), human, full length; also called hGPRASP2; full-length hGPRASP2; source: E. coli Rosetta2 (DE3), purified (IMAC, TEV protease, second IMAC, size exclusion chromatography)
T1 sequence (looked up): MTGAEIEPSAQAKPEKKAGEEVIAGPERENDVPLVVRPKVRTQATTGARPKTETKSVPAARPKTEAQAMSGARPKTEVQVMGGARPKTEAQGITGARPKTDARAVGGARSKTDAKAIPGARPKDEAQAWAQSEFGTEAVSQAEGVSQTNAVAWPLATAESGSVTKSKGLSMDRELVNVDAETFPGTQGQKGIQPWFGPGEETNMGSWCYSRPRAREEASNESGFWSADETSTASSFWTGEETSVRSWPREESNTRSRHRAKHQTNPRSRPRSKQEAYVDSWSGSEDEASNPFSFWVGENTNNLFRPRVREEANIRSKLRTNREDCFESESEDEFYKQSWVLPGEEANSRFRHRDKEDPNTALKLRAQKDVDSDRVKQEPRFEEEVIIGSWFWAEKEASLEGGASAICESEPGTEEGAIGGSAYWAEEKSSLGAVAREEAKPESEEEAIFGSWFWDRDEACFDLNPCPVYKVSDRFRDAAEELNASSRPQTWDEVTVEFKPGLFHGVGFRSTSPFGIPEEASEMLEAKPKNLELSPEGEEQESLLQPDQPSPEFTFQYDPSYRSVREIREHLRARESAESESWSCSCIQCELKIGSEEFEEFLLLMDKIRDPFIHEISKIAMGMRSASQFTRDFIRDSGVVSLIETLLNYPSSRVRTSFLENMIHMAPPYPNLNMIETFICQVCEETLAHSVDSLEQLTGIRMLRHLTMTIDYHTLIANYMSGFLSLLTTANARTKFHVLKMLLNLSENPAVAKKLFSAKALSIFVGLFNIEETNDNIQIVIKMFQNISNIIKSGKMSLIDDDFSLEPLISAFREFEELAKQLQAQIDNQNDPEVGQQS
Description: NMR titration; 1D 1H NMR (…) of 100 uM peptide before and after addition of hGPRASP2 to 0.78 uM; 600 MHz, 298 K; 50 mM sodium phosphate pH 8, 50 mM NaCl, 0.002% NaN3, 100 uM DTT, 90% H2O/10% D2O. As to conditions: both partners purified.

For KATLLIWRRTWCRL (peptide, UniProt Q99835 539-552, looked up, source: synthetic peptide (PSL GmbH)) [hSMO-WT (aa539-552) peptide], the binding result is “binds”.

As to STWVWTKATLLIWRRTWCRL (peptide, UniProt Q99835 533-552, looked up, source: synthetic peptide (PSL GmbH)) [hSMO-WT (aa533-552) peptide], the binding result is “binds”.

B1: hSMOM2 (aa533-552-W535L) peptide (peptide, UniProt Q99835 533-552, looked up)
peptide: STLVWTKATLLIWRRTWCRL
notes: also called hSMOM2 peptide; peptide from human SMOM2; source: synthetic peptide (PSL GmbH)
As for B1, the binding result is on record as “binds”.
